Numbering of substitutions follows the chain as printed.
Tests used:
[1] = molecular target: human CD96v2 expressed on cells (human) (UniProt P40200); assay: competition flow cytometry, inhibition of CD155-Fc-AF647 binding to CHO cells expressing human CD96v2
[2] = molecular target: human CD96v2 expressed on cells (human) (UniProt P40200); assay: flow cytometry, CHO cells expressing human CD96v2
[3] = molecular target: native human CD96 on primary human T cells and NK cells (human) (UniProt P40200); assay: flow cytometry, primary human CD3+ T cells

B1: 42Y073-1A01-85 (antibody, V domains shown)
VH: QVQLVQSGAEVKKPGASVKVSCKASGYTFTSYPMHWVRQAPGQGLEWMGIINPSGGFTSYAQKFQGRVTMTRDTSTSTVYMELSSLRSEDTAVYYCARETAYYTTKGNWFDPWGQGTLVTVSA
VL: DIQMTQSPSSLSASVGDRVTITCRASQSISSYLNWYQQKPGKAPKLLIYAASSLQSGVPSRFSGSGSGTDFTLTISSLQPEDFATYYCQQSLYPPRTFGGGTKVEIK
- IC50 [1]: 0.03 nM
- EC50 [2]: 0.47 nM

B2: 42Y073-1A01-100 (antibody, V domains shown)
VH: B1 VH with S31T, P33R, F57L, S59Q, A123S
VL: B1 VL
- IC50 [1]: 0.06 nM
- EC50 [2]: 0.02 nM

B3: 42Y073-1A01-103 (antibody, V domains shown)
VH: B1 VH with S31A, P33Q, S54A, F57W, A123S
VL: B1 VL
- IC50 [1]: 0.03 nM
- EC50 [2]: 0.02 nM

B4: 42Y073-1A01-126 (antibody, V domains shown)
VH: B1 VH with S31R, P33N, I50W, S54A, F57S
VL: B1 VL
- IC50 [1]: 0.1 nM
- EC50 [2]: 0.02 nM

B5: 42Y073-1A01-191 (antibody, V domains shown)
VH: B1 VH with S31K, P33R, S54Q, F57S
VL: B1 VL
- IC50 [1]: 0.03 nM
- EC50 [2]: 0.01 nM

B6: 42Y073-86F04-3 (antibody, V domains shown)
VH: QVQLVQSGAEVKKPGSSVKVSCKASGGTFSYNAISWVRQAPGQGLEWMGGIIPIMGTARYAQKFQGRVTITADESTSTAYMELSSLRSEDTAVYYCARLLGESGMDVWGQGTTVTVSS
VL: B1 VL with S91P, L92Y, Y93F, P94S, R96P
- IC50 [1]: 0.31 nM
- EC50 [2]: 0.04 nM

B7: 42Y073-86F04-4 (antibody, V domains shown)
VH: B6 VH with S30E, Y31S, N32E, M55F, T57R
VL: B1 VL with S91P, L92Y, Y93F, P94S, R96P
- IC50 [1]: 0.18 nM
- EC50 [2]: 0.04 nM

B8: 42Y073-86F04-5 (antibody, V domains shown)
VH: B6 VH with Y31S, N32H, M55F, T57R, A58G, R59K
VL: B1 VL with S91P, L92Y, Y93F, P94S, R96P
- IC50 [1]: 0.38 nM

B9: 42Y073-86F04-6 (antibody, V domains shown)
VH: B6 VH with Y31G, N32H, M55F, T57R
VL: B1 VL with S91P, L92Y, Y93F, P94S, R96P
- IC50 [1]: 0.25 nM
- EC50 [2]: 0.06 nM

B10: 42Y073-86F04-18 (antibody, V domains shown)
VH: B6 VH with Y31S, N32R
VL: B1 VL with S91P, L92Y, Y93F, P94S, R96P
- IC50 [1]: 0.59 nM
- EC50 [2]: 0.07 nM

B11: 42Y073-86F04-23 (antibody, V domains shown)
VH: B6 VH with Y31G, N32Y, A33P
VL: B1 VL with S91P, L92Y, Y93F, P94S, R96P
- IC50 [1]: 0.76 nM
- EC50 [2]: 0.06 nM

B12: 42Y073-1A01-97 (antibody, V domains shown)
VH: B1 VH with S31R, Y32A, P33A, S54A, F57Y, A123S
VL: B1 VL
- IC50 [1]: 0.03 nM
- EC50 [2]: 0.77 nM

B13: 42Y073-86F08-3 (antibody, V domains shown)
VH: QVQLVQSGAEVKKPGSSVKVSCKASGGTFVNYAISWVRQAPGQGLEWMGGIIPALGTANYAQKFQGRVTITADESTSTAYMELSSLRSEDTAVYYCARGAGYYGDKDPMDVWGQGTTVTVSS
VL: DIQLTQSPSSLSASVGDRVTITCRASQSISSYLNWYQQKPGKAPKLLIYAASSLQSGVPSRFSGSGSGTDFTLTISSLQPEDFATYYCQQVLHTITFGGGTKVEIK
- IC50 [1]: 0.26 nM
- EC50 [2]: 0.04 nM

B14: 42Y073-86F08-4 (antibody, V domains shown)
VH: B13 VH with V30S, N31E, S35H, G50N, A54I, L55F, N59G
VL: B13 VL
- IC50 [1]: 0.38 nM
- EC50 [2]: 0.04 nM

B15: 42Y073-86F08-8 (antibody, V domains shown)
VH: B13 VH with V30W, N31L, A54Q
VL: B13 VL
- IC50 [1]: 0.93 nM
- EC50 [2]: 0.17 nM

B16: 42Y073-86F08-16 (antibody, V domains shown)
VH: B13 VH with V30N, N31E, I52V, A54V, L55F, N59K
VL: B13 VL
- IC50 [1]: 0.78 nM
- EC50 [2]: 0.03 nM

B17: 42Y073-86F08-17 (antibody, V domains shown)
VH: B13 VH with V30R, N31E, A54V, L55F
VL: B13 VL
- IC50 [1]: 0.52 nM
- EC50 [2]: 0.1 nM

B18: 42Y073-86F08-22 (antibody, V domains shown)
VH: B13 VH with S16A, G27Y, V30D, N31S, I34M, S35H, A54I, L55F, N59W
VL: B13 VL
- IC50 [1]: 0.41 nM
- EC50 [2]: 0.03 nM
- EC50 [3]: 0.1 nM

B19: 42Y073-86F08-47 (antibody, V domains shown)
VH: B13 VH with V30S, N31Q, S35H, G50V, A54I, L55F, T57K
VL: B13 VL
- IC50 [1]: 0.17 nM
- EC50 [2]: 0.05 nM

Reference: patent US20240166747A1
